Consider 21 sequences from the DeepSol protein solubility set.

The data set in a line: soluble on expression in E. coli; label from the status in PepcDB or PDB records.
Regarding “MGSDKIHHHHHHMEYINEVTINEAIIHVLDNSSEGVVFNEVELELNEETYEYILKHIQKCLKDEELKYAVFNVERNLAKELSQEYLDGKSDIVSVSKELASQLFVIMKSNGNIPSCDLLTAAITTEYGRMLVVLKMDYVKNYTHNIDVVDDKVEINIIPQFIGLPSSGQKIQKCAFIKPIREENNFDLMVIDKNSGKKDEDEYGSNYFINNYLGCKIINNERDLTKTFVKSAEKWTQKNLKDNADAAELVRTSIKKRLKEDDSININEVSDEIFGENKEAKDNFVEFIKKQGIEEKIELDKQWVENKMKRTRLKIDKDIDLYINEETYNDSSRFEIKRNGDGTINMIIKQVRNYVEK”, the “soluble on expression in E. coli” value is “not soluble”.

For the sequence “GGGGGGMVNLQRARTPIHRVGFARPPLHLAIPHPATTTPCAMSAESLVLALVLLALCGAVMLRWISQRHAHDSAVGDKALTHKGRLRLSQNASGSAAGRCGSDDGNDSDQGGVDDDNGGAVGRRRRGAGGVLRRRRPQERGGNARRGGSDGDENSYDGDDAGGIPETDANGVKLTRLQRKKLAKEREREERRQAQEAALEAQRQRMDVNELRDAEAALREEELKAAEEAALQQLRRDKKKAEDEEYAKWVSHIGVEERGELGDEERERQTRMQSFLLDRAAQVQARARRSAAGAKSSPSEEECIHVLILQTAARDLKVSVEELVSTIEQLSQVDKVHGVFDDRGKYVFIAPEQFPLLAQFIRLRGRVSVQEFTRECNRVVMQS”, the “soluble on expression in E. coli” value was “soluble”.

Turning to “MSLKCIAIDLDGTLLNKESVISAENREAIKRAVDAGILVTICTGRATFDVKALLDDLDIPIIAANGGTIHDTGYRLISRTLMDQEAGKAIADYLLSKNIYFEVYTDDHLLSPFDGEAKLHAELDILKSANPNEQTDDLWQGAMTQFKQFGIKPIPHIESVFDGGENIYKLLCFSFDMDKLKQAKEELKHHKKLAQTSSGKHIIEILPASSGKGRALTKLADIYGIETQDIYAIGDSPNDLSMFEVAGHRIAMENAIDELKEKSTFVTKSNDENGVAYFIDQLLSGQYAEGHHHHHH”, the “soluble on expression in E. coli” value is “soluble”.

With “MSTEHLTPELLRLADSTPGFMPEDEGTALHEAAMQYLPPGGVGVEIGTYCGRSTIYLGAAAKARAARIVTIDHHHGSEEHQPGWEYHEPAFVDPHTGLLDTVGRFRHTMADSGLEDYVVGVLGRSSTVATFWRTPVHFVFIDGGHTSEAASADLEGWAPWVNVGGALVIHDVFPDPADGGRPPFEIYERALATGQFKETSVTGSLRVLERVGGQTGEPLA”, the “soluble on expression in E. coli” value is on record as “not soluble”.

With “MNRLDQLGIRINLICNVFDKWIGQQDLNYNLFTVLYTLATEGSRTQKHIGEEWSLPKQTVSGVCKTLAGQGLIEWQEGEQDRRERLLSLTEKGKVHAAPLTENAQEFSDKVFSTFGDKRTTRLFADLDALAEVMEKTISENKK”, the “soluble on expression in E. coli” value is listed as “not soluble”.

With “MKTVICGVQNMTTIRRLSAEDLLHFNSVNLDQLTETFNLGFYFNYLARWPDYQYVVTDSQSTTVAYIIGKAEGAGDLFHGHVSAVTVAPWFRRMGLASLLMEILENVSEKVYQGYFVDLFVRVSNHRAIEMYKKLGYIVYRRIIGYYSGEEDAFDMRKSLSKDPERKAMIPLDRPVYPSEVLLTD”, the “soluble on expression in E. coli” value is recorded as “soluble”.

Consider “PKLPTISQFNVTPFLAFISPDYKTHIDPNEVESVFEVPANHILNPNKLYSSKFELKRSSHRVFAIPYRQHFIWGMTAQIIESMQKHIISG”, for which the “soluble on expression in E. coli” value is given as “not soluble”.

Turning to “GAVFEFDNLAPMLATHGTVAGLKASQWAFEGKWDGYRLLVEADHGAVRLRSRSGRDVTAEYPQLRALAEDLADHHVVLDGEAVVLDSSGVPSFSQMQNRGRDTRVEFWAFDLLYLDGRALLGTRYQDRRKLLETLANATSLTVPELLPGDGAQAFACSRKHGWEGVIAKRRDSRYQPGRRCASWVKDKHWNTQEVVIGGWRAGEGGRSSGVGSLLMGIPGPGGLQFAGRVGTGLSERELANLKEMLAPLHTDESPFDVPLPARDAKGITYVKPALVAEVRYSEWTPEGRLRQSSWRGLRPDKKPSEVVRE”, the “soluble on expression in E. coli” value is reported as “soluble”.

Regarding “AIALVGPAPTTDGSAENTLNEKRLVHGSIAFWLGPRAPQTKTHRWTVYVRGARDPLEDLSLYIQKVEFVLHESFADPVRVVKEPPFCLTEHGWGEFEVIIRLFPISDPDKPVEMYHPLRLFPSVGQELTEKPVVSEHLDVLVFSQPAPEVERALHRSDVARMPSDCWGDLMPLFGGDLHQVEEEDLRKVQQARERVRQQIQATRLQYEALTAELARARTHALHRELS”, the “soluble on expression in E. coli” value is “soluble”.

Turning to “MSLKKIGVLGMGYVGIPAAVLFADAPCFEKVLGFQRNSKSSGYKIEMLNRGESPLKGEEPGLEELIGKVVKAGKFECTPDFSRISELDAVTLAIQTPFANPKDLEPDFSALIDGIRNVGKYLKPGMLVVLESTITPGTTEGMAKQILEEESGLKAGEDFALAHAPERVMVGRLLKNIREHDRIVGGIDEASTKRAVELYSPVLTVGQVIPMSATAAEVTKTAENTFRDLQIAAINQLALYCEAMGINVYDVRTGVDSLKGEGITRAVLWPGAGVGGHCLTKDTYHLERGVKIGRGELDYPEGADSIYVLARKVNDFMPAHMYNLTVAALERLGKKMDGSKVAMLGWAFIKDSDDARNTPSEPYRDLCLKAGASVMVHDPYVVNYPGVEISDNLEEVVRNADAIVVLAGHSAYSSLKADWAKKVSAKANPVIIDGRNVIEPDEFIGKGFVYKGIGREGHHHHHH”, the “soluble on expression in E. coli” value is reported as “not soluble”.

For “MAHHHHHHMHMNNYHYNNYNVNFNPYNCGVVQESEKKNVGNVNNKVVLQKNYSNEYEMKYKEENKNNKINYLENLLNEPTAKEKKIKEEKTNILSIIEAPTVIEEMRIKKFQKKDDSVKIICPYLTKKVCQKHNKECNKVHFKKIISEHTDVSLGDCSYLDTCRHIETCKFVHYAVDKDDQQMNMNTQENLSQSKLSFSSNIKENVYGPQWIRCDLRNFDLSIFNKYVSVVMADPPWDIHMDLPYGTMTDNEMKLLPVQLIQDEGMIFLWVTGRAMELARECLQIWGYKRVEEILWVKTNHLQRIIRTGRTGHWLNHSKEHCLVGIKGNPIINRNIDCNVIVSEVRETSRKPDEIYSLIERLCPQNLKIELFGRPHNCRSNWITLGNQLNGVVLHHPQIKERYNKVATQFNLPLCEK”, the “soluble on expression in E. coli” value is “not soluble”.

On to “MGSDKIHHHHHHMWEVRYLNAELLDLKLWGEGCRLYQIRQMGDDEICLIQTDDTPQESLCERWQVVYAERGAVQQLLFEFTDEAEACEFMYREIKRIKHPHLVGLFPTDAEAEQFCQVLTQLEIQFSHDPQGRVRVYDQEIFTVERHFGCQLPLRKWLSVPERIHVTLARLRKFDPYNCYAQITTNPPIGSEAKLSELEAEHRIKLPEVYRTFLLEVCNGGNWERLGHYWSAEEVMANNSAQLWNQPLPEFLAKLKAAKSGDWLTNPGNRQYPGLLRIVDWDNPVRDLFLTQEGYEVEIQGDWIRFCEFSPEQWLKDFLDDIQYGLFPIEGLLAFLRSGELIRDYPYFHTVNFARLLAETIGLNIDPELTNEQVKMSDEIDYKINQWRIENMGKMRYNFGFNAEQAEVRRQRILERLEYLYQLYS”, for which the “soluble on expression in E. coli” value was “not soluble”.

For the sequence “HVYDEQIYRKSSEVLRMSSERIEDELKKIEDVSYEIITDEQIQRILSMQNRDDTYDQYQMKQELWDQLAGYASDEKYIDSIHVIDARGSEYSAGSSSSDLLQQEQEEVFKRAKAKSGRNLWMTLGGSDPVLISARQIRSYHQLSLNGLGMVLIQVNVKQMIRDVPKDWGDSVGDIMIADQGGNLVYTAHASAHVPEAAKETLKHPGYDLIKKNGKRYFISYLQSSYQNWSYYNVIPFDQMFAK”, the “soluble on expression in E. coli” value is “not soluble”.

Take “MAKGTPVTLTTNTEGATIYYTLDGSNPTNKSVRYNGRIVVNENSVIKAIAEKEGLTSSAISTFSFVIVNNEPVRIHDIQGKSHLSPYNGKKVYNVEGVVTALDKNGFYIEDNQPDNDPATSEGMYVYKKDANVAVGDLIQVDGVVEEYVGPGYAERFDTDLTTTEIKASRVVVIAKDQVLPAPIVLGENGVKIPDQIIDNDAFGLFDPNEDAIDFYESVEGMRVTMPTPKIIAPQKNGNLYVTVKNGGNKVVTKYGTPVLDENQLNPERLSVKVPRDYVAKVGDTFTGDITGVVGYDYGSFRIAPITELPSVVDGGFKQIGANIQPRLEHHHHHH”: the “soluble on expression in E. coli” value is on record as “not soluble”.

Regarding “MGSDKIHHHHHHMGDKVLKIGSVHQCNCCMGSKTLHPLVSVIDLSKADLSSHTDFKFGFYTILLSECKCEAYRYGHQYYDFSDGTLLCLTPGESISMKDSDNTRPSKGWILAFHPDLICGTALGANIRDYTFFSYRPEEALHVSLREKQVILELLDKINEELQRCIDCYSQKIISKYIELLLDYCERFYERQFITRNEANKKIIERFDRLLDDHFNTIQSQSSDLPTIEECVRVLRLSPAYFNDLLEYETGKSYKEYLQFKRFEIAKEWLINTDKTLSQIAQELGFRNPQYFSRLFKKITGCLPNDFKMPN”, the “soluble on expression in E. coli” value is listed as “not soluble”.

As for “MSLTGGVISGLGKGTITSSIGHILKDSGIKVSAVKIDPYINYDAGTMNPYQHGEVFVLDDGGEVDLDLGNYERFMNINLSRDNNITTGKVYLEVIQKERHGDYLGKTVQIIPHITDEIKRRIREVARTSGADVVLIEVGGTVGDIESMPFLEALRQLKREEQNVVFAHVTLVPEIGPTMEQKTKPTQHSVKALREIGIQPDIIFARSKQKLTEETKSRISLFTDVPVEGIISVSDVENVYLLPQMMVNEGLITRLSKLLNMNIEYRDSWTSYAENIRHPRDRVKVAIVGKYVDLHDAYISHKEAFSHVTGNTGIAVDIMWIDSEKVKNDQSVLSEADAILIPGGFGYRGVEGKIAATRYAMENGVPFLGICLGFQVAVIAVARYVLGLDGANSTEFDEKTKYPVVDILPEQRGVKDMGGTMRLGSKKVVIKKGTLAHRIYGADVIYERHRHRYEVNPDYIDMIEKAGFKFSATDEEGIRMEILERPGDESFIATQYHSEFKSRPLDPSKVHLHLVEQALIFKHRRMGENHEGYATAASSQGQEGHHHHHH”, the “soluble on expression in E. coli” value is “soluble”.

Regarding “MSLESGFLEDAQANLTLRNFYFNRNFTNPTKAQGKAEEWTQSFILDAKSGFTQGTVGFGMDVLGLYSLKLDGGKGTGGTQLLPLDHDGRPADNFGRLGVAFKARLSQTEVKVGEWMPVLPILRSDDGRSLPQTFRGGQITSKEIAGLTLYGGQFRANSPRDDSSMSDMSMFGKAAFTSDRFNFQGAEYAFNDKRTQIALWNAQLKDIYSQQFINLIHSQPLGDWTLGANLGFFYGKEDGSARAGDMENRTWSGLFSAKYGGNTFYVGLQKLTGDSAWMRVNGTSGGTLANDSYNASYDNAKEKSWQVRHDYNFAALGVPGLTLMNRYISGSNVHTATVSDGKEWGRESEVAYTVQSGTLKNLNLKWRNSTMRRDFSNNEFDENRLIISYPLSLLEGHHHHHH”, the “soluble on expression in E. coli” value was “soluble”.

Consider “MKGHCHCGAVRWQSDGKVAWSCYCHCADCRRNCAAPVTAFFGLPHESVTWSGDAPRIYRSTDRVERLFCGTCGTQMAYRNADDRVNIHLYTATLEDPSALPPRFHVFHTARLPWLDLQDDLPRFDRTAG”, for which the “soluble on expression in E. coli” value was “not soluble”.

On to “DGISSLLKPLSKIGLDTKTFALLISMTLRFVPILSDEFSTIVDAQRSRGLSLKTGSIVKRTKTLIPMIIPLISVAFKKALTLADTMEIRGFIDAKSRTSFHQLKFQKID”, for which the “soluble on expression in E. coli” value was “not soluble”.

As for “MADDAGILYENSLDLLKSMKNFAGNVGEGEKKHPYGKAANAARAYGSGMKNSAASFNHSGEQFDKLFEACNTFKDQINGNVLAKLISFKDVECKDVDTQMTQLKKAQKDYANKKSKIVPDQVQVDAAEATLKKLLEEAKATLEKFNKTGCELLTQISADMKTGFDAYCDAAASIN”, the “soluble on expression in E. coli” value is reported as “not soluble”.

On to “EVIDLASPIEAHGETLSQVTFRRPTAQEARAIKALPYKIDKNEDVSLDLDVAAKYIAVCAGIPPSSVNQMDLCDINTLSWKVASFFMAAAS”, for which the “soluble on expression in E. coli” value is recorded as “not soluble”.
